Laboratory results taken from publication PMC8289115, “Liquid–liquid phase separation of full-length prion protein initiates conformational conversion in vitro” (The Journal of Biological Chemistry, 2021).

Target: the molecule itself
Test: SDS-PAGE and Western blotting of aged gels collected by centrifugation

B1: full-length human recombinant prion protein (residues 23-231) (natural protein)
chain: not shown
notes: also called rPrP; hu-PrP; source: E. coli DH5α, purified
- binding result: binds
